For the data set the following is noted: Capra hircus; pH 7.5; 25 °C; GdnHCl; CD; Tris 20 mM; Ca2+ 10 mM; whole UniProt chain shown.

B1: Alpha-lactalbumin wild type, P00712 (protein)
chain: MMSFVSLLLVGILFHATQAEQLTKCEVFQKLKDLKDYGGVSLPEWVCTAFHTSGYDTQAIVQNNDSTEYGLFQINNKIWCKDDQNPHSRNICNISCDKFLDDDLTDDIVCAKKILDKVGINYWLAHKALCSEKLDQWLCEKL
B1: the denaturant m value turned out to be 3 kcal/mol/M and the unfolding free energy stood at 10.2 kcal/mol.

(Values after FireProtDB (doi:10.1021/bi0512400).)
